This assay has as its target T1, human epidermal growth factor receptor (human (endogenous in melanoma cells …, UniProt P00533 25-1210)).
T1 construct: epidermal growth factor receptor, human, as present on human melanoma cells (CRL-1872); The cells were not transfected; also called hEGFR; EGFR; source: endogenous, human melanoma cells (CRL-1872, ATCC), formalin-fixed in a 96-well plate
The assay is described as follows: ligand binding assay on fixed cells (biotinylated ligand, NeutrAvidin-HRP, ABTS, absorbance at 405 nm); formalin-fixed human melanoma cells in a 96-well plate; biotinylated peptide at 10, 50 and 500 nM in MEM with 0.1% BSA and 200 mM HEPES, 37 °C, 1 h; washes with cold PBS and 0.3 M NaCl; triplicates. The settings on record: one partner purified.

B1: Recombinant human EGF (ligand)
chain: MNSDSECPLSHDGYCLHDGVCMYIEALDKYACNCVVGYIGERCQYRDLKWWELR
modifications: biotin (conjugated with NHS-biotin; sites not stated)
notes: also called rhEGF; source: bought: Thermo Scientific; biotinylated with NHS-biotin
As to B1, the “increase of the relative binding percentage on a tenfold higher concentration” value was 4%.

(Values after PMC9605497, “Potential of Epidermal Growth Factor-like Peptide from the Sea Cucumber Stichopus horrens to Increase the Growth of Human Cells: In Silico Molecular Docking Approach” (Marine Drugs, 2022).)
